Four molecules from US20130101601A1 (ANAPTYSBIO, published 2013) can be followed below.

The target in assay [1] is T1, human βNGF (Nerve Growth Factor) (human, UniProt P01138 122-241, limits assumed).
T1 construct: In the FACS rounds it was used biotinylated, fluorochrome-labelled or fused to wasabi fluorescent protein; The construct used in the Biacore runs is not described; also called hβNGF
Kind of assay: kinetic characterization (Biacore).

Assay [2] has as its target T1, human βNGF (Nerve Growth Factor). The assay is described as follows: Biacore, purified antibody captured at low density (Rmax<30). The source says:
Mutations observed in both strategies not utilized by APE803 were recombined by overlap extension PCR in a combinatorial library, each HC/LC pair was expressed and characterized on Biacore utilizing direct capture of secreted antibodies.

Assay [3] has the same target. The assay is described as follows: Biacore and flow cytometry-based antigen-binding assays.

T1 sequence (P01138 122-241 limits assumed): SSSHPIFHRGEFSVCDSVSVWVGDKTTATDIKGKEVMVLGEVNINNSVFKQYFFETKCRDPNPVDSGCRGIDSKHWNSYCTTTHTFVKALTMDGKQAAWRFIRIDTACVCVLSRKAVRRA

B1: APE803 (antibody, V domains shown)
VH: QVQLVQSGAEVKKPGSSVKVSCKASGDTFSNYATGDTFSNYAISWVRQAPGQGFEWMGGIIPIFGTANYAQKFQGRVTITADESTSTAYMELSSLRSEDTAVYYCARGPEYYAYVWGSYRYNYFDYWGQGTLVTV
VL: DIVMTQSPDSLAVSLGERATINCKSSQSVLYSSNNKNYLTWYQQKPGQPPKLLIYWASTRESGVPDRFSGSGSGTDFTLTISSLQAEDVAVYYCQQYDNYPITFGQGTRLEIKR
notes: HC CDR3 mutation D100A in the context of the APE646 variant
For the molecule B1, in assay [1], the dissociation constant Kd amounted to 0.76 nM and the “fold improvement in kon (against APE646)” value amounted to 100 fold.

B2: APE925 (antibody, V domains shown)
VH: QVQLVQSGAEVKKPGSSVKVSCKASGDTFNNYATGDTFSNYAISWVRQAPGQRFEWMGGIIPIFDTANYAQKFQGRVTITADESTNTAYMELSSLRSEDTAVYYCARGPEYYAYVWGSYSYNYFDYWGQGTLVTV
VL: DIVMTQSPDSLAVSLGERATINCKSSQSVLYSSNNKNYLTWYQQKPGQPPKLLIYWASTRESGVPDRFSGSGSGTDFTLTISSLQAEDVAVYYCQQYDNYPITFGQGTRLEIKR
B2 gave a Kd in assay [2] of 0.025 nM.

B3: APE391 (antibody, V domains shown)
VH: QVQLVQSGAEVKKPGSSVKVSCKASGGTFSNYAISWVRQAPGQGLEWMGGIIPIFGTANYAQKFQGRVTITADESTSTAYMELSSLRSEDTAVYYCARGPEYYDYVWGSYRYNYFDYWGQGTLVTV
VL: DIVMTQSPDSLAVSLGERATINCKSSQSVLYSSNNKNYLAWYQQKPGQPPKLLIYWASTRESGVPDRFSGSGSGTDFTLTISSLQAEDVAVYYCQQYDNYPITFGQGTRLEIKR
notes: Fully human IgG; also called HC/LC pair from SCC C10A
Turning to B3, in assay [3], the binding result is on record as “binds”.

B4: APE583 (antibody, V domains shown)
VH: QVQLVQSGAEVKKPGSSVKVSCKASGGTFSNYAISWVRQAPGQGFEWMGGIIPIFGTANYAQKFQGRVTITADESTSTAYMELSSLRSEDTAVYYCARGPEYYDYVWGSYRYNYFDYWGQGTLVTV
VL: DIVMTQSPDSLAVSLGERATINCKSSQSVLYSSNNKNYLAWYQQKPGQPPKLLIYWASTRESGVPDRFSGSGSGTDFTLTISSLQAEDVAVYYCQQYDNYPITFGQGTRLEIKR
notes: APE391 with the HC mutation L45F
For B4, in assay [1], the binding result was “binds”.
